Test results from patent US20170254807.

B1: Fc-D3 (mBetacam D3 domain, aa 240-335, fused to human IgG1 Fc; pFUSE-Fc-D3) (protein)
chain: YGPYGLQVNSDKGLKVGEVFTVDLGEAVLFDCSADSYPPNTYSWIQRSDNTTHVIKHGPHLEVASEKVAQKTADYVCCAYNNITGRRDETRFTVII
B2: Fc-D1/D2 (mBetacam D1-D2 domain, aa 33-239, fused to human IgG1 Fc; pFUSE-Fc-D1/D2) (protein)
chain: LKVTVPSYTVHGIRGQALYLPVHYGFHTPASDIQIIWLFERSHTMPKYLLGSVNKSVVPDLEYQHKFTMMPPNASLLINPLQFTDEGNYIVKVNIQGNGTLSASQKIQVTVDDPVMKPMVQFHPASGAVEYVGNITLTCQVEGGTRLVYQWRKSGKPISINSSHSFSPQNNTLWIVPVTKEDIGNYTCLVSNPVSEMESDIIMPTIY

Columns and labels:
[1] = bead aggregation assay, flow cytometry, experiment 1, before the 90 min incubation
[2] = bead aggregation assay, fluorescence microscopy

Protein | P3 (aggregates) prior to incubation [1] | aggregate size [2]
B1 | P3 prior to incubation is 40.8% | 
B2 |  | Aggregates of >100 beads were observed
